Test results: publication PMC6428836, “A complex of novel protease inhibitor, ovostatin homolog, with its cognate proteases in immature mice uterine luminal fluid” (Scientific Reports, 2019)

Molecular target: the molecule itself
Experiment: SEC + other: non-reducing and reducing SDS-PAGE; about 700 kDa on Sephacryl S-400, about 360 kDa in non-reducing SDS-PAGE, traces of the 162 kDa subunit under reduction; tetramer of two disulfide-linked dimers

B1: mouse ovostatin homolog (natural protein, mouse (endogenous in immature mouse ULF), UniProt Q3UU35 20-1456, looked up)
chain: AEPRYILWVSSVVQRFSSEKACLHLLNLNESVSLSVTLEYDGSSTTIFDQPVDEGNFYACADFKVSQMSSEQLAFVALLVQGNTLKISERRSVAIAAEENATFVQTDTPVHKPGDTVHFRVVTLNIWLKPVDDLYPLITVQDPQSNVIFQWINVTTFRNITQLSFQLTPEPILGDYTIVIKTQSGTTVMDHFTVNRDVLPKFEVELTAPETITIADSQFQMVTCAKYTYGQPVQGKAQIKVCRELFSPAHCESNENEICEQFTVQLKDGCASHIINTKVFQLDRSGLFMTLNVNEVVTESGTGVQMSKTHSVFITSVLGTVSFENMDPFYRRGITYFGTLKFSGPNNTPLVDKLLQLELDGKPVGNYTTDENGEARFSINTSEIFGAQISLKAVYVRPRSCHRSSWLSPEYLDAYFSASRFYSQTSSFTKIILEPKQLPCDQEKMFSVLYSLNPEAYKEASDVTFFYLVMVRGGISRSGQKQVRVQAWNGNFSFPISINADLAPSADLFVYTLHPSGEIVADNVRLQIEKCFKNKVSINFSRDKDLPGSNTSVHLQAAPDSFCALRAVDKSALLLNHGQEMTPESVYFTLPYIHQYGYFYNGLNLDDQQAEPCIPQKDLFYNGLYYTPTGNIWDGDLSNLLSNMGLKIFTNLHYRKPEVCSSQENQPLLRTFDHPNERIMMYGGGAPPSSAFHDSVDSISHAKVAIKETVRTNFPRTWIWNLVSVDSSGTANVSFLVPDTITQWEASAFCVNGNAGFGISPKVSLQISQPFFVEVTSPFSVVRSEQSDMVVTVFNYLTTCVEISVQLEASENYEASINTQRNTDSEVLQAGEQKTYVWTIIPKTLGKVNVTVVATSKQSRACPNDASKEQDVHWKDTVVKTMLVEAEGIEKEATQSFLICPKGTKASKQTLLELPSNVVEGSVRSFVTIVGDILGVAMQNLESLLQMPYGCGEQNIAQLASDVYILDYLKATDQLTEELKSKAQRLLSNGYQNHLSFKNYDGSYDVFCQSNQEGSTWLSALSFKTVEKMKEYIFIEETVPKQTLIWLVKKQKSNGCFRRDEKHVDTAQEGREGDQEDIALTAYVVGVFLEVGLNASFPALRNGLYCLEEAFSNGVTNGYTQAILAYVFALAGKEQQAKSLLSILDKSATKTNNMIYWERDEKPETDNSPSFIPSALSGETEKTCYVLLAVLSQDTQDLDYASKIVQWLAQRMNSHGGFSAMQDTTVCLLALTQYMKLTGSNPQNTITLSSEESEEVFYVNRNKRLLVQHSKVSKGHQQYTVDVEGDGCSFIQATLRYNVPLPKEASGFSLSVKTGKSNSSDEFQTKFELTVTLTYTGARESSVTVLVDVKMLSGFTPVVSSTEELKFNSQVTKTDIKNGHVLFYLENVPKEATSLTFSIEQTNHVANIQPAPVTVYSYEKGEYAFDSYNINSISDSQ
notes: ovostatin homolog, mouse, NP_001001179.2; predicted subunit 162 kDa; 360 kDa in non-reducing SDS-PAGE, about 700 kDa by gel filtration; In ULF most subunits are seen as an 88 kDa fragment under reducing conditions, only traces as the 162 kDa subunit; also called mOH; 360 kDa protein; source: endogenous, uterine luminal fluid (ULF) of DES-treated immature ICR mice; also partly purified from it …
stoichiometry N: 4
